Assay results taken from patent US20160040155A1, “ACTIVATING AN ALTERNATIVE PATHWAY FOR HOMOLOGY-DIRECTED REPAIR TO STIMULATE TARGETED GENE CORRECTION AND GENOME ENGINEERING” (UNIVERSITY OF WASHINGTON THROUGH ITS CENTER FOR …, priority 2013, published 2016).
“Also recorded” adds a separate entry of the source.

Experiments:
Format in all cases: cell-based, human
Flp-In T-REx-293 cells = experiment: Tetracycline-inducible P-Tet TL reporter HDR and mutEJ assay with or without doxycycline
Experimental: To ask if active transcription was required for the transcribed strand bias in HDR at nicks, derivatives of the TLTP and TLNT reporters were created in which a tetracycline-inducible (P-Tet) was substituted for the constitutive SFFV promoter upstream of GFP. TheseP-Tet TLTP and P-Tet TLNT reporters were stably integrated at the unique FRT site in Flp-In™ T-REx™-293 cells. Cells were cultured with (ON) or without (OFF) 1 μg/ml doxycycline, transfected with an I-AniI expression construct and the pCS14GFP plasmid dsDNA donor, and after 8-9 days of culture, doxycycline was added to the OFF cells to permit detection of HDR (GFP+) and mutEJ (mCherry+) events that had occurred in the absence of transcription. Active transcription increased the frequency of HDR at a transcribed-strand nick 2.5-fold, but reduced the frequency of HDR at a non-transcribed strand nick 4-fold (FIG. 9C). These opposing effects together accounted for the 8-fold greater frequency of HDR at a transcribed strand nick in a transcribed gene (FIG. 9B). […] Without wishing to be bound by theory, the transcription-associated strand bias of HDR at nicks may reflect unwinding ahead of the transcription apparatus that exposes the recombinogenic 3′ end of a transcribed strand nick that stimulates HDR, while occlusion of the 3′ end and exposure of the less recombinogenic 5′ end of a non-transcribed strand nick may hinder HDR (FIG. 9D). Similarly, the 2-fold reduction in mutEJ observed at DSBs, but not at nicks (FIG. 17B), may be caused by occlusion of the DSB by factors associated with the transcription apparatus.
(§1) Cell culture and transfection. […]
Flow cytometry. Cells were fixed in 2% formaldehyde and analyzed on an LSR II™ flow cytometer (Becton Dickinson, Franklin Lakes, N.J.). […]

HT1080-TL4TP clonal line = experiment: TL reporter HDR (GFP+) flow assay, I-AniI nickase or cleavase, HT1080-TL4TP clonal line; conditions: I-AniI nick, ssDNA donors
Experimental: (§2) Flow cytometry data were analyzed using FlowJo™ (Tree Star, Ashland, Oreg.) flow cytometry analysis software and frequencies were transferred to Microsoft Excel™ in which statistical significance was determined by two-tailed t-test. In all experiments I-AniI was co-expressed with mTagBFP (BFP) and GFP+ and mCherry+ frequencies among BFP+ cells are shown.
ssDNA molecules can serve as donors for HDR at DSBs (22-24). It was asked if they can also serve as donors for HDR at nicks using 99 nt ssDNA oligonucleotides in which a central 17 nt heterologous region corrects the mutations in the defective target gene (FIG. 10A). […] No donor strand bias was evident at DSBs.
Flow cytometry, HDR and mutEJ frequencies. Cells were processed for flow cytometry as described previously (13). In experiments with I-AniI, which was co-expressed with mTagBFP (BFP), data are presented as GFP+ and mCherry+ frequencies among BFP+ cells, except in cases where flow was carried out more than 8 days post-transfection, by which time the BFP signal was largely extinguished.
as §1
(§3) Flow cytometry. Cells were fixed in 2% formaldehyde and analyzed on an LSR II™ flow cytometer (Becton Dickinson, Franklin Lakes, N.J.). […] GFP, mCherry, and mTagBFP fluorescence were detected with 488 nm, 561 nm 406 nm and 641 nm lasers, respectively. […]

[1] = test system: 293T-TLTP and 293T-TLNT cell populations; experiment: TL reporter HDR (GFP+) assay in 293T-TLTP and 293T-TLNT cell populations, I-AniI; conditions: I-AniI nickase
Source text: Populations of 293T cells bearing either the TLTP or TLNT reporter at heterogeneous integration sites were transiently transfected with a construct co-expressing I-AniI and the blue fluorescent protein mTagBFP (BFP), and with the dsDNA plasmid donor pCS14GFP. This donor is homologous with the TLTP and TLNT reporters over a region extending 2.47 kb upstream and 0.56 kb downstream of the I-AniI site (FIG. 15A-15C). GFP+ cells among I-AniI-expressing (BFP+) cells were quantified at 3 days post-transfection. […] Nicks initiated HDR with nearly 8-fold greater frequency in the TLTP than in the TLNT population.
To learn what determines ssDNA donor strand bias, HDR by ssDNA donors complementary to the intact (cI) or nicked (cN) strand at transcribed and non-transcribed strand nicks in the TLTP and TLNT populations was compared. The TLTP and TLNT populations carry reporters delivered by lentiviruses and integrated at heterogeneous chromosomal positions, to minimize possible effects of replication direction on this assay.
To determine whether there is a predominant directionality to unwinding or resection, a comparison was made of HDR at nicks by ssDNA donors identical in length (75 nt) and centered on the nick or extending either 3′ or 5′ of the nick. […]

293T-TL7TP cells = experiment: Traffic Light (TL) reporter HDR (GFP+) flow assay, I-AniI nickase or cleavase, 293T-TL7TP clonal line; conditions: I-AniI nick, 99 nt ssDNA donors
Source text: Damage to the transcribed DNA strand is preferentially detected and repaired in transcription-coupled nucleotide excision repair^7, and transcribedstrand nicks can arrest transcriptional elongation in human cell extracts^8. […] Chromosomal repair targets were derived from the TL reporter^9. TLTP and […] reporters carry an I-AniI site oriented for nicking the transcribed or non-transcribed strand, respectively (FIGS. 1A and 5A-5E). HDR that replaces the I-AniI site and nonsense codons yields GFP+ cells (FIGS. 1B and 5A-5E). […] GFP+ cells among I-AniI-expressing (BFP+) cells were quantified 3 days later.
as §2
Damage to the transcribed strand is preferentially detected and repaired in transcription-coupled nucleotide excision repair (16), and transcribed strand nicks can arrest transcriptional elongation in human cell extracts (17). […]

293T-TL7TP line = experiment: TL reporter mutagenic end joining (mCherry+) flow assay, I-AniI, 293T-TL7TP line; conditions: mCherry+ cells, nicks or DSBs
Source text: Damage associated with gene targeting must be minimized for these applications. While the sequence-specificity of I-AniI limits its application to genome engineering, it is useful as a model in this context, as it cuts DNA to generate 5′-phosphate and 3′-hydroxyl ends like the FokI cleavage domain^13 of zinc finger or TALE nucleases suited for genome engineering applications. The TL reporter was used to quantify mutagenic end joining (EJ) accompanied by +2 frameshift that allows the mCherry gene to be translated (FIG. 1B). In the 293T-TL7TP line, the frequency of nick-initiated mutagenic EJ was nearly two orders of magnitude lower than that of DSB-initiated mutagenic EJ, regardless of donor (FIG. 3E). RAD51K133R expression increased the frequency of mutagenic EJ, but the frequency of nick-initiated mutagenic EJ remained lower than that of DSB-initiated mutagenic EJ (FIG. 3E). […]
Flow cytometry data were analyzed using FlowJo™ (Tree Star, Ashland, Oreg.) flow cytometry analysis software and frequencies were transferred to Microsoft Excel™ in which statistical significance was determined by two-tailed t-test. […]
as §3

[2] = ON vs OFF, 1 μg/ml doxycycline, pCS14GFP dsDNA donor

Molecule | reduction in mutEJ at DSBs (Flp-In T-REx-293 cells; ON vs OFF doxycycline, FIG. 17B, not at nicks) [fold] | increase of the frequency of HDR at a transcribed-strand nick (Flp-In T-REx-293 cells; [2]) [fold] | reduction of the frequency of HDR at a non-transcribed strand nick (Flp-In T-REx-293 cells; [2]) [fold] | frequency of HDR at nicks by ssDNA donor (HT1080-TL4TP clonal line) | effect on HDR at nicks in the transcribed or non-transcribed strand [1] | frequency of HDR at nicks by ssDNA donor (293T-TL7TP cells) | frequency of mutagenic EJ (293T-TL7TP line)
C[C@H]1c2cccc(O)c2C(=O)C2=C(O)[C@]3(O)C(=O)C(C(N)=O)=C(O)[C@@H](N(C)C)[C@@H]3[C@@H](O)[C@@H]21 [doxycycline] | 2 | 2.5 | 4 | – | – | – | –
RAD51K133R: dominant negative RAD51 mutant which does not hydrolyze ATP, transiently expressed from pCMV-RAD51K133R-T2A-IFP-1.4 (protein, UniProt Q06609 2-339, looked up, variant K133R, T2A-IFP1.4 coexpression) DNA repair protein RAD51 …: AMQMQLEANADTSVEEESFGPQPISRLEQCGINANDVKKLEEAGFHTVEAVAYAPKKELINIKGISEAKADKILAEAAKLVPMGFTTATEFHQRRSEIIQITTGSKELDKLLQGGIETGSITEMFGEFRTGRTQICHTLAVTCQLPIDRGGGEGKAMYIDTEGTFRPERLLAVAERYGLSGSDVLDNVAYARAFNTDHQTQLLYQASAMMVESRYALLIVDSATALYRTDYSGRGELSARQMHLARFLRMLLRLADEFGVAVVITNQVVAQVDGAAMFAADPKKPIGGNIIAHASTTRLYLRKGRGETRICKIYDSPCLPEAEAMFAINADGVGDAKD | – | – | – | stimulating | Stimulation was evident; also recorded: comparable effects | stimulating | increased
